Measurements as given in patent US20030203372A1, “Analysis method” (priority 2000, published 2003).

B1: p1K9 (nucleic acid, listed as Homo Sapiens)
DNA: AGTGTGAAATCTTCAGAGAAGAATTTCTCTTTAGTTCTTTGCAAGAAGGTAGAGATAAAGACACTTTTTCAAAAATGGCAATGGTATCAGAATTCCTCAAGCAGGCCTGGTTTATTGAAAATGAAGAGCAGGAATATGTTCAAACTGTGAAGTCATCCAAAGGTGGTCCCGGATCAGCGGTGAGCCCCTATCCTACCTTCAATCCATCCTCGGATGTCGCTGCCTTGCATAAGGCCATAATGGTTAAAGGTGTGGATGAAGCAACCATCATTGACATTCTAACTAAGCGAAACAATGCACAGCGTCAACAGATCAAAGCAGCATATCTCCAGGAAACAGGAAAGCCCCTGGATGAAACACTTAAGAAAGCCCTTACAGGTCACCTTGAGGAGGTTGTTTTAGCTCTGCTAAAAACTCCAGCGCAATTTGATGCTGATGAACTTCGTGCTGCCATGAAGGGCCTTGGAACTGATGAAGATACTCTAATTGAGATTTTGGCATCAAGAACTAACAAAGAAATCAGAGACATTAACAGGGTCTACAGAGAGGAACTGAAGAGAGATCTGGCCAAAGACATAACCTCAGACACATCTGGAGATTTTCGGAACGCTTTGCTTTCTCTTGCTAAGGGTGACCGATCTGAGGACTTTGGTGTGAATGAAGACTTGGCTGATTCAGATGCCAGGGCCTTGTATGAAGCAGGAGAAAGGAGAAAGGGGACAGACGTAAACGTGTTCAATACCATCCTTACCACCAGAAGCTATCCACAACTTCGCAGAGTGTTTCAGAAATACACCAAGTACAGTAAGCATGACATGAACAAAGTTCTGGACCTGGAGTTGAAAGGTGACATTGAGAAATGCCTCACAGCTATCGTGAAGTGCGCCACAAGCAAACCAGCTTTCTTTGCAGAGAAGCTTCATCAAGCCATGAAAGGTGTTGGAACTCGCCATAAGGCATTGATCAGGATTATGGTTTCCCGTTCTGAAATTGACATGAATGATATCAAAGCATTCTATCAGAAGATGTATGGTATCTCCCTTTGCCAAGCCATCCTGGATGAAACCAAAGGAGATTATGAGAAAATCCTGGTGGCTCTTTGTGGAGGAAACTAAACATTCCCTTGATGGTCTCAAGCTATGATCAGAAGACTTTAATTATATATTTTCATCCTATAAGCTTAAATAGGAAAGTTTCTTCAACAGGATTACAGTGTAGCTACCTACATGCTGAAAAATATAGCCTTTAAATCATTTTTATATTATAACTCTGTATAATAGAGATAAGTCCATTTTTTAAAAATGTTTTCCCCAAACCATAAAACCCTATACAAGTTGTTCTAGTAACAATACATGAGAAAGATGTCTATGTAGCTGAAAATAAAATGACGTCACAAGAC
B2: p1E11 (nucleic acid, listed as Homo Sapiens)
DNA: TCTCTACAAATNNCTATAACAAAACTTTTTAGGAAAGTACCACAAATATGTTAAACAGAAGAAGCAAATCTCAAATAATGTGCAAAAGCTGTGAGTTTCTTCTTACATAAAACTGGTACCTAAGCAAGTGAGGGTTCATTTTATTTTTCACTCACCAATCCCCATATCATTATACAGTAACACCATACAGCCAAAACGGCCATGATATTCCTCCCTTCTCAGCCAAAATTGGGCAAGAGAGAATGACCCTTGTAGGGGAAAAGAAACCTCTACGATAAACTGAAATGCCACCATCAGGGTTTGTTGAAACTGTAGGNACAGGGTCTACGNCTCACTTAGCTGCTAATGAGTTTCTATGGTTCCAGNTGGGGTAGTTCAAAGTA
modifications: EST array clone; misc_feature 12, 13, 317, 330, 366: n = A,T,C or G
B3: p2A24 (nucleic acid, listed as Homo Sapiens)
DNA: TTTTTTTTTATTTGGATTCTATTTATTTAAAATTAAATTCTTTGCAAAATTGAACTTCTCAACTAAAACGTGTCCATGTCAGAATTTTAACTGTTAGCAGGTAGTTTGTGGCAAAGATGGCTAAATAATGAAGCAAATTAGAATCTGTGTGTATACTAATGAGCTGCTTTTTTTCTGTTGAGACTATCATTATTTGTCTTATTACCCAAGAGGCAATTACCTGAATTTGGATGTCTGAATTATAACTTATGCAGGAATAGTTCTGTAAATACATTTAAATAAACTGTAAAGATATTTAATAAATATAGTATTTATACTAATCTGTGTGCTTCTTTTGGTTTGAATAGTAACTAAATGAGACACCAGCCCTTGACATTGAGTTTGTTGGTCACTATCAGGTCCTCATTTCCAAGCCTCCTAGTCATTCTAGCACTGATTATATGCTGCTACTTTAACTGGCTCCAGCTGCTTCACTACATCAGTTTAGCTTCCTCAGAAATTCATCAAAATGGACGGACAATTAAATGTAAATTATAGAACTTTTTCCCAGCTGAGGCTTTGCACCTTCCGTATAGTATAGAGGGAAGCTACAAAAA

Assays:
[1] = system: human breast and ovary tumors; test: Custom gene array, breast and ovary tumors versus normal adjacent tissue; details: Table 19
Text: A study has been performed to examine the expression of these genes in a selection of breast and ovary tumors, comparing expression with normal adjacent tissue from the same patient. There is expected to be a large degree of variation between different patients, and the study here contains only 5 patients with a range of diagnoses.
Patients are designated as Letters:
E: person. Diagnosis: ovarian adenocarcinoma. Normal ovarian tissue derived from an age-matched separate individual.
: person. Diagnosis: poorly differentiated adenocarcinoma. Normal ovarian tissue derived from the same individual.
G: person. Diagnosis: moderately-differentiated adenocarcinoma. Normal ovarian tissue derived from the same individual.
H: person. Diagnosis: invasive ductal carcinoma. Normnal breast tissue derived from the same individual.
K: person. Diagnosis: invasive ductal carcinoma. Normal breast tissue derived from the same individual.
Data normalisation was done per-chip to correct for differences in labelling and hybridization efficiency. Per-gene normalisation was done such that the expression values of each gene are relative to the median value of that gene throughout the series of samples. By comparing the expression values under normal (nor) and tumor (turn) for a single patient, differences in expression between the normal and malignant tissue of that patient can be inferred.

[2] = system: primary human cell cultures (11 cell types); test: Custom gene array, 11 human cell types in normoxia or hypoxia for 6 hr and 18 hr; type: cell-based; details: for mRNA expression level, #1 HY 6 hr: cell type #1, hypoxia 6 hr; for mRNA expression level, #1 HY 18 hr: cell type #1, hypoxia 18 hr; for mRNA expression level, #1 NO: cell type #1, normoxia; for mRNA expression level, #2 HY 6 hr: cell type #2, hypoxia 6 hr; for mRNA expression level, #2 HY 18 hr: cell type #2, hypoxia 18 hr; for mRNA expression level, #2 NO: cell type #2, normoxia; for mRNA expression level, #3 HY 6 hr: cell type #3, hypoxia 6 hr; for mRNA expression level, #3 HY 18 hr: cell type #3, hypoxia 18 hr; for mRNA expression level, #3 NO: cell type #3, normoxia; for mRNA expression level, #4 HY 6 hr: cell type #4, hypoxia 6 hr; for mRNA expression level, #4 HY 18 hr: cell type #4, hypoxia 18 hr; for mRNA expression level, #4 NO: cell type #4, normoxia; for mRNA expression level, #5 HY 6 hr: cell type #5, hypoxia 6 hr; for mRNA expression level, #5 NO: cell type #5, normoxia; for mRNA expression level, #6 HY 6 hr: cell type #6, hypoxia 6 hr; for mRNA expression level, #6 NO: cell type #6, normoxia;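 for mRNA expression level, #1 HY 18 hr: cell type #1 is adipocyte from subcutaneous adult adipose tissue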;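 for mRNA expression level, #1 HY 6 hr: cell type #1 is adipocyte from subcutaneous adult adipose tissue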;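 for mRNA expression level, #1 NO: cell type #1 is adipocyte from subcutaneous adult adipose tissue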;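 for mRNA expression level, #2 HY 18 hr: cell type #2 is fetal cardiomyocyte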;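 for mRNA expression level, #2 HY 6 hr: cell type #2 is fetal cardiomyocyte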;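 for mRNA expression level, #2 NO: cell type #2 is fetal cardiomyocyte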;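 for mRNA expression level, #3 HY 6 hr: cell type #3 is human umbilical vein endothelial cells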;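 for mRNA expression level, #3 NO: cell type #3 is human umbilical vein endothelial cells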;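 for mRNA expression level, #4 HY 18 hr: cell type #4 is adult dermal fibroblast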;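 for mRNA expression level, #4 HY 6 hr: cell type #4 is adult dermal fibroblast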;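 for mRNA expression level, #4 NO: cell type #4 is adult dermal fibroblast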;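 for mRNA expression level, #5 HY 6 hr: cell type #5 is adult hepatocyte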;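 for mRNA expression level, #5 NO: cell type #5 is adult hepatocyte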;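 for mRNA expression level, #6 HY 6 hr: cell type #6 is blood-derived macrophage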;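 for mRNA expression level, #6 NO: cell type #6 is blood-derived macrophage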
Protocol: Equivalent cultures of non-immortalized, non-transformed primary human cells of 10 distinct types, were cultured in either normoxia or were exposed to hypoxia for 6 hr and 18 hr, and gene expression changes were determined. […] Moreover, unlike the vast majority of information in the public domain relating to genes responsive to hypoxia, all of these cells were human and were cultured without any modifications following isolation from the human donors.
A non-primary cell type (#9) was used to represent neurons, since primary human neurons are difficult to source. Therefore a total of 11 cell types are compared. It should be noted that RNA from hepatocytes at the […] timepoint of hypoxia was not available for this work.
Each RNA sample was hybridised to duplicate or triplicate arrays, to ensure reproducible data, and was analysed using GeneSpring software. Data from replicate arrays were merged during analysis to generate mean values. Data normalisation was achieved per-array using the aforementioned list of control genes, such that differences in RNA labelling or hybridization due to experimental variation were corrected by referencing each gene to the mean value of the reference genes on the same array. Also, for each gene, expression values were obtained which represent the value in each experimental condition (e.g. macrophages 6 hr hypoxia) as compared to the median of value of that gene throughout the full range of experimental conditions (i.e. from all cell types). […] This is common in microarray data analysis.

| Molecule | mRNA expression level, #1 HY 6 hr [2] | mRNA expression level, #1 HY 18 hr [2] | mRNA expression level, #1 NO [2] | mRNA expression level, #2 HY 6 hr [2] | mRNA expression level, #2 HY 18 hr [2] | mRNA expression level, #2 NO [2] | mRNA expression level, #3 HY 6 hr [2] | mRNA expression level, #3 HY 18 hr [2] | mRNA expression level, #3 NO [2] | mRNA expression level, #4 HY 6 hr [2] | mRNA expression level, #4 HY 18 hr [2] | mRNA expression level, #4 NO [2] | mRNA expression level, #5 HY 6 hr [2] | mRNA expression level, #5 NO [2] | mRNA expression level, #6 HY 6 hr [2] | mRNA expression level, #6 NO [2] | other results |
| --- | --- | --- | --- | --- | --- | --- | --- | --- | --- | --- | --- | --- | --- | --- | --- | --- | --- |
| B1 | – | – | – | – | – | – | – | – | – | – | – | – | – | – | – | – | gene expression level on custom gene array, Breast nor H ([1]; breast, normal adjacent tissue, patient H): 1.20; gene expression level on custom gene array, Breast nor K ([1]; breast, normal adjacent tissue, patient K): 0.23; gene expression level on custom gene array, Breast tum H ([1]; breast, tumor tissue, patient H): 0.54; gene expression level on custom gene array, Breast tum K ([1]; breast, tumor tissue, patient K): 0.12; gene expression level on custom gene array, Ovary nor E ([1]; ovary, normal adjacent tissue, patient E): 0.46; gene expression level on custom gene array, Ovary nor F ([1]; ovary, normal adjacent tissue, patient F): 1.33; gene expression level on custom gene array, Ovary nor G ([1]; ovary, normal adjacent tissue, patient G): 1.07; gene expression level on custom gene array, Ovary tum E ([1]; ovary, tumor tissue, patient E): 4.09; gene expression level on custom gene array, Ovary tum F ([1]; ovary, tumor tissue, patient F): 1.17; gene expression level on custom gene array, Ovary tum G ([1]; ovary, tumor tissue, patient G): 0.31 |
| B2 | 1.12 | 0.87 | 1.36 | 2.86 | 3.03 | 2.09 | 0.91 | 0.88 | 0.74 | 0.59 | 0.79 | 0.89 | 2.09 | 0.77 | 2.97 | 2.76 | #6 HY 18 hr (mRNA expression level) ([2]; cell type #6, hypoxia 18 hr): 2.90; #7 HY 6 hr (mRNA expression level) ([2]; cell type #7, hypoxia 6 hr): 0.64; #7 HY 18 hr (mRNA expression level) ([2]; cell type #7, hypoxia 18 hr): 0.34; #7 NO (mRNA expression level) ([2]; cell type #7, normoxia): 0.63; #8 HY 6 hr (mRNA expression level) ([2]; cell type #8, hypoxia 6 hr): 1.47; #8 HY 18 hr (mRNA expression level) ([2]; cell type #8, hypoxia 18 hr): 1.35; #8 NO (mRNA expression level) ([2]; cell type #8, normoxia): 0.64; #9 HY 6 hr (mRNA expression level) ([2]; cell type #9, hypoxia 6 hr): 1.16; #9 HY 18 hr (mRNA expression level) ([2]; cell type #9, hypoxia 18 hr): 0.64; #9 NO (mRNA expression level) ([2]; cell type #9, normoxia): 1.18; #10 HY 6 hr (mRNA expression level) ([2]; cell type #10, hypoxia 6 hr): 0.79; #10 HY 18 hr (mRNA expression level) ([2]; cell type #10, hypoxia 18 hr): 0.88; #10 NO (mRNA expression level) ([2]; cell type #10, normoxia): 0.74; #11 HY 6 hr (mRNA expression level) ([2]; cell type #11, hypoxia 6 hr): 2.49; #11 HY 18 hr (mRNA expression level) ([2]; cell type #11, hypoxia 18 hr): 1.93; #11 NO (mRNA expression level) ([2]; cell type #11, normoxia): 1.79; HIGHEST FOLD CHANGE IN HYPOXIA (hr hypoxia + cell type) ([2]; hypoxia/normoxia induction ratio, 6 hr hepatocyte): 2.73 (6 hr hepatocyte) fold |
| B3 | 0.65 | 0.67 | 1.21 | 2.21 | 2.48 | 2.42 | 3.05 | 2.59 | 2.35 | 0.76 | 0.68 | 1.10 | 0.91 | 0.68 | 0.22 | 0.28 | HIGHEST FOLD CHANGE IN HYPOXIA (hr hypoxia + cell type) ([2]; DOWN, 18 hr adipocyte): 1.85 DOWN (18 hr adipocyte) ^ fold |
